Assay results: US20240067747A1 (SHANGHAI HUAOTA BIOPHARMACEUTICAL, published 2024)
Where two headings read alike, the source gives them in different places. One block for each binder: values may come before it.

Columns and labels:
[1] = target: T1, human CD73 on the cell surface of CHOK1-huCD73-3F4 cells (Huabo Biopharm) (human, UniProt P21589 27-549); assay: cell-based or functional assay
T1 sequence (looked up): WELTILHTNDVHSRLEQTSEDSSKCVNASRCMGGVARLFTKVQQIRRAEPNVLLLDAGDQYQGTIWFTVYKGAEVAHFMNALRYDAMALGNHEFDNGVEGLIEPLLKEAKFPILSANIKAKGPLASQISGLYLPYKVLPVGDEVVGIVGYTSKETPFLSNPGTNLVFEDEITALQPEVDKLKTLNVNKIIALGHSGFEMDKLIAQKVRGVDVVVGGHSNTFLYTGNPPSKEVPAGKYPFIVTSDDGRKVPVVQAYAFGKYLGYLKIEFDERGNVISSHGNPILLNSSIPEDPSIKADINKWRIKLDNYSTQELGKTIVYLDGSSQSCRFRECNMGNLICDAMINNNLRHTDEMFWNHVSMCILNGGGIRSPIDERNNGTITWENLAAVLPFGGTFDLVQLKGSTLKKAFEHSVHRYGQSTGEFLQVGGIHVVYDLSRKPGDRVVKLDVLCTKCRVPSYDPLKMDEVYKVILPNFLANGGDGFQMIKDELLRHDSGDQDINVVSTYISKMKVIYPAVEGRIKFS

[2] = target: T1, human CD73 on the cell surface of …; assay: cell-based or functional assay; remark: listed apart in the source
[3] = target: T1, human CD73 on the cell surface of …; assay: flow cytometry on CHOK1-huCD73-3F4 cells, PE-goat anti-human-Fc
Description: All antigen-binding proteins were diluted to 30 μg/ml with 1% BSA in PBS solution (1% BSA/PBS) and then 3-fold diluted for 11 gradients. The diluted antigen-binding proteins were added to a 96-well U-shaped plate at 20 μL per well; and a negative control (with 1% BSA/PBS added only) was set up at the same time. The suspension of cells (CHOK1-huCD73-3F4, Huabo Biopharm) expressing human CD73 during the logarithmic growth phase were centrifuged (1000 rpm×5 min) to discard the culture medium; and the cells were resuspended with 1% BSA/PBS until the density of viable cells was 1×10⁶/mL, and were added, at 20 μL (2×10⁴ cells) per well, to the 96-well U-shaped plate with the […] antigen-binding protein to react for 30 min at room temperature. After reaction, the 96-well U-shaped plate was resuspended with 1% BSA/PBS, centrifuged (300 g×3 min) to discard the supernatant, and washed once in such a way. PE-goat anti-human-Fc (Jackson ImmunoResearch, #109-115098) diluted at 1:200 was added to react for 15 min in the dark at room temperature. After reaction, the 96-well U-shaped plate was resuspended with 1% BSA/PBS, centrifuged (300 g×3 min) to discard the supernatant, washed three times in such a way, and finally resuspended with 100 μL of 1% BSA/PBS for each wall; and the fluorescence intensity of a PE channel was detected with a flow cytometer (BD, #Cantoll).

[4] = target: T2, Human CD73 (as used in the hybridoma screening of Table 1) (human, UniProt P21589 27-549, limits assumed); assay: Biacore affinity screen of hybridoma clones
T2 sequence (looked up): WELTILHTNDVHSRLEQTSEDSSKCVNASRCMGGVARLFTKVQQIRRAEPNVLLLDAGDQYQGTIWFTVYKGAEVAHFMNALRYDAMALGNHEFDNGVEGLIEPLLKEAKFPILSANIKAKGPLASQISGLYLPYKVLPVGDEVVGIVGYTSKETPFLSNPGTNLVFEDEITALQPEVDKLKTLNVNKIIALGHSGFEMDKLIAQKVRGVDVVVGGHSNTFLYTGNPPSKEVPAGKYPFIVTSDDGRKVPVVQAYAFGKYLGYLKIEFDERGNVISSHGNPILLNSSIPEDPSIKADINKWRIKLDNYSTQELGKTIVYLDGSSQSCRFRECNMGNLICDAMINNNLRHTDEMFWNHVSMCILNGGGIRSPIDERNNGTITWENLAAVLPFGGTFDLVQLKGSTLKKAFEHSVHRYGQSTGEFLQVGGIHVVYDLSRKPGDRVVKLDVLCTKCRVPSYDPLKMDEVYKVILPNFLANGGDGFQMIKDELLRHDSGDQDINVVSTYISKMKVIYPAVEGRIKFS

- EC50 of inhibition of the enzyme activity of CD73 on cell membrane (AMP/ATP, CellTiter-Glo) [1]: 0.0417 µg/mL
B1: 900759 (Oleclumab antibody sourced from MedImmune, MEDI 9447) (antibody, human IgG1, lambda, L234A L235A, V domains shown)
VH: EVQLLESGGGLVQPGGSLRLSCAASGFTFSSYAYSWVRQAPGKGLEWVSAISGSGGRTYYADSVKGRFTISRDNSKNTLYLQMNSLRAEDTAVYYCARLGYGRVDEWGRGTLVTVSS
VL: QSVLTQPPSASGTPGQRVTISCSGSLSNIGRNPVNWYQQLPGTAPKLLIYLDNLRLSGVPDRFSGSKSGTSASLAISGLQSEDEADYYCATWDDSHPGWTFGGGTKLTVLG

- EC50 of inhibition of the enzyme activity of CD73 on cell membrane (AMP/ATP, CellTiter-Glo) [2]: 11.1 µg/mL
- EC50 [3]: 2.9 µg/mL
B2: 900584 (screened antigen-binding protein targeting CD73) (antibody, V domains shown)
VH: QVQVQQPGTELVKPGASVKLSCKASGYTFTGYWMHWVKQRPGQGLEWIGMIHPNSGSTYYNEKFKSKATLTVDRSSSTAYMQLSSLSSEDSAVYYCARYYGTTYEWYFDVWGTGTTVTVSS
VL: DIQMTQTTSSLSASLGDRVTISCRASQDISNYLNWYQQKPDGTVKPLIYYTSSLHSGVPSRFSGSGSGTDYSLTISDLEHEDIATYFCQQGYTLPFTFGGGTKLEIK
notes: It was detected with PE-goat anti-human-Fc

- Kd [4]: 2.16 nM
B3: 124A9 murine monoclonal antigen-binding protein (hybridoma clone 124A9) (antibody, V domains shown)
VH: QVQLQQPGAELVKPGASVKLSCKASGYTFTSYWIHWVKQRPGQGLDWIGMIHPNSGSTYYNEKFKSKATLTVDKSSSTAYMQLSSLTSEDSAVYYCARYYGSDYEWYFDVWGTGTTVTVSS
VL: DIVMTQSQKFMSTSVGDRVSITCKASQNVRTAVVWYQQNPGQSPKALIYLASNRHTGVPDRFTGSGSGTDFTLTISNVHSEDLADYFCLQHWNYPYTFGGGTKLEIK
